Test results as given in article PMC6086657, “Structure of the human volume regulated anion channel” (eLife, 2018).

Target: the molecule itself
Experiment: cryo-EM structure; SWELL1-FLAG homomer in 20 mM Tris pH 8, 150 mM NaCl, 0.05% digitonin, ~8 mg/mL on UltrAuFoil grids; C3 symmetry imposed; ~4 Å map

B1: human SWELL1 (LRRC8A) with a C-terminal FLAG-tag (SWELL1-GGG-FLAG) (natural protein, UniProt Q8IWT6 1-810, looked up)
chain: MIPVTELRYFADTQPAYRILKPWWDVFTDYISIVMLMIAVFGGTLQVTQDKMICLPCKWVTKDSCNDSFRGWAAPGPEPTYPNSTILPTPDTGPTGIKYDLDRHQYNYVDAVCYENRLHWFAKYFPYLVLLHTLIFLACSNFWFKFPRTSSKLEHFVSILLKCFDSPWTTRALSETVVEESDPKPAFSKMNGSMDKKSSTVSEDVEATVPMLQRTKSRIEQGIVDRSETGVLDKKEGEQAKALFEKVKKFRTHVEEGDIVYRLYMRQTIIKVIKFILIICYTVYYVHNIKFDVDCTVDIESLTGYRTYRCAHPLATLFKILASFYISLVIFYGLICMYTLWWMLRRSLKKYSFESIREESSYSDIPDVKNDFAFMLHLIDQYDPLYSKRFAVFLSEVSENKLRQLNLNNEWTLDKLRQRLTKNAQDKLELHLFMLSGIPDTVFDLVELEVLKLELIPDVTIPPSIAQLTGLKELWLYHTAAKIEAPALAFLRENLRALHIKFTDIKEIPLWIYSLKTLEELHLTGNLSAENNRYIVIDGLRELKRLKVLRLKSNLSKLPQVVTDVGVHLQKLSINNEGTKLIVLNSLKKMANLTELELIRCDLERIPHSIFSLHNLQEIDLKDNNLKTIEEIISFQHLHRLTCLKLWYNHIAYIPIQIGNLTNLERLYLNRNKIEKIPTQLFYCRKLRYLDLSHNNLTFLPADIGLLQNLQNLAITANRIETLPPELFQCRKLRALHLGNNVLQSLPSRVGELTNLTQIELRGNRLECLPVELGECPLLKRSGLVVEEDLFNTLPPEVKERLWRADKEQA
notes: SWELL1 (LRRC8A), human, UniProt Q8IWT6, cDNA Origene #RC208632; the abstract calls it full-length; the model holds residues 15-68, 94-174, 232-802 (inner subunit) and 15-68, 94-175, 214-802 (outer subunit); Homohexamer (trimer of dimers); The solubilization buffer held 2 mg/mL iodoacetamide; One endogenous SWELL1 allele remained intact in the expression cell line; also called SWELL1-FLAG; …
stoichiometry N: 6
